Measured values taken from patent US7425614B2, “Neuroprotective therapeutics preventing ERK/MAPK activation through the NMDA receptor” (Children's Medical Center Corporation, priority 2003, dated 2008).

Test system: ERK
Test: phospho-ERK immunocytochemistry in cultured hippocampal neurons
Format: cell-based, rat
Conditions: cultured hippocampal neurons
Description: Neurons from 18 day rat embryos were dissociated using trypsin and plated on coverslips coated with poly-L-ysine in minimal essential medium (MEM) with 10% NU serum (BD Biosciences, Le Pont de Claix, France) at densities of 30,000 cells/cm^2 as described (Brewer, G. J. (1995) J. Neurosci. Res. 42, 674-683). On days 7 and 11 of culture incubation, half of the medium was changed to MEM with 2% B27 supplement (Invitrogen).
Cells were transfected with cDNA for EGFP fusion proteins (LipofectAMINE 2000; Invitrogen) or by pseudoviral infection using a Sindbis expression system (Invitrogen). Neurons were incubated with cDNA and LipofectAMINE for 2 hr, rinsed, and incubated with culture media (MEM with 2% of B27 supplement) 17 hr prior to the experiment. For viral delivery, neuronal cultures were incubated 30 min with pseudoviral constructs diluted 200-500× in culture media. Cultures were rinsed and incubated in media for 15 hr. 0.1% to 1.5% of neurons were fluorescent after expressing LipofectAMINE-delivered constructs while Sindbis infection yielded 1%-10% transfection efficiency. Most of the experiments were performed on 12-14 days in vitro (div) cultures unless otherwise indicated.
Three hours before stimulation, TTX (1 μM), CNQX (40 μM), APV (100 μM), and nimodipine (5 μM) were added to neurons. For stimulation, coverslips with neurons were transferred into the following solutions.
(1) 100 μM NMDA, 10 μM glycine, 1 μM TTX, 40 μM CNQX, 5 μM nimodipine dissolved in culture media and incubated for 3 min. […]
After stimulation, neurons were fixed with 4% formaldehyde and labeled with rabbit anti-phospho-p44/42 ERK antibody (Cell Signaling) and with mouse anti-MAP2 antibody (Sternberger Monoclonals). Cy3-conjugated goat anti-rabbit IgG and Cy5-conjugated goat antimouse IgG (Jackson Immunoresearch Laboratories, West Grove, Pa.) were secondary antibodies. NMDA and all antagonists were from Tocris Neuramin. BDNF was from Calbiochem. Images were acquired with an Olympus Fluoview-500 confocal microscope (40×; 1.0 NA) and quantified using Olympus Fluoview software. In each experiment, the pERK fluorescence of the cell soma was measured for 25 neurons taken from consecutive fields. Phospho-ERK fluorescence data were normalized to the values obtained in nontransfected cells after NMDA stimulation. The background fluorescence (mean fluorescence of nonstimulated neurons) was subtracted prior to normalization.

B1: NR2B-BD: peptide of amino acids 886-1310 of the NR2B C-terminal domain that binds RasGRF1; used as NusA or EGFP fusion (protein)
chain: SPTATMNNTHSNILRLLRTAKNMANLSGVNGSPQSALDFIRRESSVYDISEHRRSFTHSDCKSYNNPPCEENLFSDYISEVERTFGNLQLKDSNVYQDHYHHHHRPHSIGSTSSIDGLYDCDNPPFTTQPRSISKKPLDIGLPSSKHSQLSDLYGKFSFKSDRYSGHDDLIRSDVSDISTHTVTYGNIEGNAAKRRKQQYKDSLKKRPASAKSRREFDEIELAYRRRPPRSPDHKRYFRDKEGLRDFYLDQFRTKENSPHWEHVDLTDIYKERSDDFKRDSVSGGGPCTNRSHLKHGTGEKHGVVGGVPAPWEKNLTNVDWEDRSGGNFCRSCPSKLHNYSSTVAGQNSGRQACIRCEACKKAGNLYDISKDNSLQELDQPAAPVAVTSNASSTKYPQSPTNSKAQKKNRNKLRRQHSYDTFVDL
modifications: left off: small tags and cut ends
notes: used as NusA or EGFP fusion
With B1 the “BDNF-induced ERK activation” value (100 ng/ml BDNF) was “had no effect”, the “NMDA-induced (NMDAR-dependent) ERK activation” value (100 μM NMDA) was “inhibit” and the “depolarization-induced ERK activation” value (50 mM KCl) was “had no effect”.
